Target: Ankyrin and SOCS Box-containing protein-10 (Asb10), rat, FLAG-tagged, expressed from adenovirus (Ad-Asb10) (rat)
Assay: co-IP; NRVMs overexpressing Asb10; lysates incubated with antibody and Protein A&G magnet beads overnight at 4 °C, washed 5 times with 0.5% PBST; western blot of candidate interacting proteins (Fig. 3C)

## HSC70, endogenous in NRVMs (from UniProt P63018 1-646) (natural protein)
  fold weaker binding than HSP70 with Asb10: 10 fold

— paper PMC12095639
